Where a chain is given by its changes, count along the chain named. Names and notes keep the numbering of the source. Blank lines part the entries; values can stand above or below the binder they belong to.
Assays:
[1] = target: cynomolgus Vδ1 antigen DV1/GV77, recombinant heterodimer (食蟹猴 (cynomolgus)); assay: SPR (Reichert 4SPR), antibody on protein A chip
[2] = target: L1 (DV1-GV4), soluble human Vδ1Vγ4 γδTCR heterodimer, leucine zipper (LZ) format (human); assay: SPR (Reichert 4SPR), antibody on protein A chip
L1 (DV1-GV4), soluble human Vδ1Vγ4 γδTCR heterodimer, leucine zipper (LZ) format (human), sequence (main, as listed by the source): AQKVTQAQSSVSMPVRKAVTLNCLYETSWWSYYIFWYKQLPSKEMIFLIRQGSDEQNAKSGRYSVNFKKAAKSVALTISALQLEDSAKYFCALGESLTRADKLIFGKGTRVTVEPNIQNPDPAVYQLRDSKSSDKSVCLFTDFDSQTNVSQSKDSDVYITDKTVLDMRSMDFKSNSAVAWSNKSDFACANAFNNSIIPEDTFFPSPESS

cynomolgus Vδ1 antigen DV1/GV77, recombinant heterodimer (食蟹猴 (cynomolgus)), sequence (main, as listed by the source): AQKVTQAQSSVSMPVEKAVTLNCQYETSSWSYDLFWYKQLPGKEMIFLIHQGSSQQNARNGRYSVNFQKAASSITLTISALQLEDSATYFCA

fold increase of affinity against ADT1-4 [1]: 5 fold
B1: ADT1-4(S74L) (antibody, V domains shown)
VH: QVQLQQSGPGLVKPSQTLSLTCAISGDSVSSKSAAWNWIRQSPSRGLEWLGRTYYRSKWSTDYAASVKSRITINPDTSKNQLSLQLNSVTPEDTAVYYCARTWSGYVDVWGQGTLVTVSS
VL: DIQMTQSPPALSASVGDRVTITCRASQDINDWLAWYQHKPGKAPKLLIYDASSLESGVPLRFSGSGSGTEFTLTISSLQPDDFATYYCQQSYSTPQVTFGQGTRLEIKR

fold decrease of affinity against ADT1-4-2 [2]: 11 fold
fold decrease of affinity against ADT1-4-2 [1]: 23 fold
B2: ADT1-4-2(L74S) (antibody, part only; not given: mutant kappa chain, V domains shown, part only)
VH: B1 VH with Q1E, S104V, V109R
